± gives the standard deviation of the averaged measurements.
System: ATP
Test: switch fluorescence ratio, 500 uM ATP over buffer (Cy3 cluster intensity, sum of 5 cycles each) (fold (ratio)); higher = stronger signal-on switching upon ATP binding; sequences stand for … in TCGTCGGCAGCGTCAGATGTGTATAAGAGACAGTTTTTTTTTTTTTTTTTTTTTTTTT…TC
Details: aptamer strand: ATP DNA aptamer (quencher-CACCTGGGGGAGTATTGCGGAGGAAGG + anchor), 100 nM annealed; ATP concentration: 500 uM
How it was run: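 Per cluster, summed Cy3 intensity from the target cycles was divided by that from the buffer cycles to give the fluorescence ratio, then averaged per switch-domain sequence. Clusters outside 100-1000 RFU were excluded. The Cy3-labelled switching-strand clusters, on a modified Illumina MiSeq flow-cell, were annealed to 100 nM quencher-labelled ATP aptamer and imaged in selection buffer, then after 15 min with 500 uM ATP at 22 °C, for five cycles with NaOH stripping and re-annealing between them.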
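Also: ATP exposure 15 min at 22 °C before imaging.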

Sequence	switch fluorescence ratio
GTTGCGGGCG	0.991 ± 0.06
GTTGCTATTT	1.0045 ± 0.00071
GTTGCTGGTG	1.025 ± 0.0071
GTTGCTTAGT	0.9724 ± 0.0038
GTTGGAAGAG	0.957 ± 0.051
GTTGGAAGGT	1.02 ± 0.012
GTTGGCACGA	1.04 ± 0.018
GTTGGCAGTG	0.978 ± 0.033
GTTGGCCTCT	1.02 ± 0.022
GTTGGCGGGG	0.976 ± 0.015
GTTGGCGGGT	1 ± 0.017
GTTGGCGTTT	1.02 ± 0.08
GTTGGCTTGG	1.02 ± 0.04
GTTGGCTTTC	1.019 ± 0.0077
GTTGGGATGG	0.991 ± 0.015
GTTGGGCCGA	1.03 ± 0.038
GTTGGGGAAG	0.972 ± 0.034
GTTGGGGCAA	1.03 ± 0.02
GTTGGGGCGA	1.02 ± 0.076
GTTGGGGGGC	0.992 ± 0.036
GTTGGGTAAA	0.983 ± 0.014
GTTGGGTAGT	0.9962 ± 0.006
GTTGGGTCCC	0.9857 ± 0.0069
GTTGGTAGGA	1.01 ± 0.033
GTTGGTATGT	0.994 ± 0.018
GTTGGTATTG	1 ± 0.021

Sequence	switch fluorescence ratio
GTTGGTGTAT	0.9913 ± 0.009
GTTGGTTACA	1.008 ± 0.0065
GTTGGTTCCG	0.996 ± 0.022
GTTGGTTCGT	1.02 ± 0.034
GTTGGTTGTT	0.985 ± 0.023
GTTGTAAGGG	0.998 ± 0.04
GTTGTAATCA	0.98 ± 0.024
GTTGTACGAG	0.9824 ± 0.0058
GTTGTACGGG	1.02 ± 0.047
GTTGTAGCCA	0.966 ± 0.043
GTTGTAGGTT	0.966 ± 0.023
GTTGTATACT	0.993 ± 0.076
GTTGTATAGA	1 ± 0.019
GTTGTATGTT	1.02 ± 0.039
GTTGTCAGGG	0.982 ± 0.012
GTTGTGAGGA	0.984 ± 0.036
GTTGTGAGGG	0.981 ± 0.018
GTTGTGATAG	1.01 ± 0.021
GTTGTGATTT	0.953 ± 0.032
GTTGTGCCTG	1.01 ± 0.041
GTTGTGCTGA	1.02 ± 0.0085
GTTGTGTTGT	0.979 ± 0.028
GTTGTGTTTT	1.01 ± 0.026
GTTGTTAAGG	0.996 ± 0.014
GTTGTTAATT	1.01 ± 0.029
GTTGTTGAGT	0.997 ± 0.0024

Sequence	switch fluorescence ratio
GTTGTTGCTC	0.987 ± 0.04
GTTGTTGGAA	0.963 ± 0.049
GTTGTTGGGT	0.983 ± 0.034
GTTGTTTTCG	0.987 ± 0.039
GTTGTTTTGT	0.985 ± 0.021
GTTGTTTTTA	0.987 ± 0.01
GTTGTTTTTG	1.02 ± 0.028
GTTGTTTTTT	0.988 ± 0.036
GTTTAAAAAA	1 ± 0.021
GTTTAAACTC	0.961 ± 0.022
GTTTAAACTT	0.996 ± 0.039
GTTTAAAGTC	0.989 ± 0.059
GTTTAAAGTG	1 ± 0.026
GTTTAAGTTT	0.996 ± 0.022
GTTTAATCCG	0.975 ± 0.013
GTTTAATGGT	0.9852 ± 0.009
GTTTAATTTA	1.01 ± 0.03
GTTTAGAGTC	1 ± 0.037
GTTTAGGAGG	0.989 ± 0.022
GTTTAGTTTG	0.992 ± 0.044
GTTTATAAAC	0.973 ± 0.064
GTTTATAATG	0.986 ± 0.02
GTTTATGAGC	1 ± 0.022
GTTTATGCAT	1 ± 0.022
GTTTATTAAA	1.04 ± 0.012
GTTTATTATA	1 ± 0.011

Sequence	switch fluorescence ratio
GTTTATTGGC	0.995 ± 0.019
GTTTATTTTT	0.997 ± 0.023
GTTTCAACTG	1 ± 0.12
GTTTCAGGGG	1.09 ± 0.015
GTTTCATATG	1.03 ± 0.047
GTTTCCAACT	1.01 ± 0.021
GTTTCCGTTT	0.973 ± 0.017
GTTTCGAAAA	0.9855 ± 0.0074
GTTTCGTAAT	1.084 ± 0.0038
GTTTCGTATA	0.997 ± 0.044
GTTTCGTGAG	0.994 ± 0.054
GTTTCTTAGC	0.998 ± 0.081
GTTTCTTTCG	1.01 ± 0.067
GTTTGAACGC	1.08 ± 0.018
GTTTGACACT	0.99 ± 0.042
GTTTGAGGGG	0.992 ± 0.012
GTTTGATAGA	0.984 ± 0.027
GTTTGATGTC	1 ± 0.1
GTTTGCAAAT	0.991 ± 0.034
GTTTGCAGCA	1.03 ± 0.027
GTTTGCAGGA	0.995 ± 0.027
GTTTGCGTTA	0.962 ± 0.05
GTTTGGACAG	1.007 ± 0.01
GTTTGGCGT	1.03 ± 0.045
GTTTGGCGTA	0.967 ± 0.015
GTTTGGGACG	0.9905 ± 0.0082

Sequence	switch fluorescence ratio
GTTTGGGGAG	0.977 ± 0.018
GTTTGGGGGA	0.9909 ± 0.0052
GTTTGGGGGC	1.03 ± 0.043
GTTTGGGTAA	0.99 ± 0.037
GTTTGGGTCA	1.03 ± 0.011
GTTTGGTATT	1.01 ± 0.04
GTTTGGTGTG	0.975 ± 0.033
GTTTGTACTC	0.997 ± 0.037
GTTTGTAGAG	0.993 ± 0.026
GTTTGTAGGC	0.9641 ± 0.0017
GTTTGTGGGA	0.974 ± 0.019
GTTTGTGTAC	1.11 ± 0.075
GTTTGTTGAG	0.979 ± 0.025
GTTTGTTGGA	0.967 ± 0.03
GTTTGTTGGT	0.977 ± 0.013
GTTTTAAAGT	1.02 ± 0.017
GTTTTAACGG	1.02 ± 0.029
GTTTTAATGG	1.01 ± 0.025
GTTTTACATT	1.02 ± 0.021
GTTTTAGAGC	1.05 ± 0.025
GTTTTAGATA	0.993 ± 0.031
GTTTTAGCTG	0.986 ± 0.059
GTTTTAGGGT	1 ± 0.031
GTTTTAGGTT	0.993 ± 0.023
GTTTTAGTCA	0.9989 ± 0.001
GTTTTAGTCC	1.01 ± 0.025

Sequence	switch fluorescence ratio
GTTTTATCCT	1.05 ± 0.011
GTTTTATGCT	1.01 ± 0.017
GTTTTCAAGT	0.979 ± 0.039
GTTTTCACGT	1.01 ± 0.013
GTTTTCCGGA	0.996 ± 0.05
GTTTTCGGGC	0.987 ± 0.067
GTTTTCGTTT	0.9711 ± 0.0058
GTTTTGAAAA	0.949 ± 0.019
GTTTTGACAC	1.02 ± 0.013
GTTTTGAGGT	1.02 ± 0.028
GTTTTGCTGT	0.986 ± 0.046
GTTTTGGGGT	0.986 ± 0.013
GTTTTGGTTG	1.01 ± 0.027
GTTTTGGTTT	0.986 ± 0.024
GTTTTGTGGA	1.01 ± 0.007
GTTTTGTGGT	0.954 ± 0.021
GTTTTTAAGT	1.03 ± 0.04
GTTTTTACGG	1.04 ± 0.0059
GTTTTTAGGC	1.02 ± 0.094
GTTTTTAGTG	0.983 ± 0.038
GTTTTTCCCC	1.11 ± 0.14
GTTTTTCGCC	1 ± 0.02
GTTTTTGAGG	0.977 ± 0.028
